Measured values from patent US20100015643A1.

Key:
[1] = target: TLR2 on human monocytes (human) (UniProt O60603); experiment: flow cytometry on monocytes, Sample 1, antibody at 1 µg/mL
[2] = target: TLR2 on human monocytes (human) (UniProt O60603); experiment: flow cytometry on monocytes, Sample 1, antibody at 3 µg/mL
[3] = target: TLR2 on human monocytes (human) (UniProt O60603); experiment: flow cytometry on monocytes, Sample 2, antibody at 1 µg/mL
[4] = target: TLR2 on human monocytes (human) (UniProt O60603); experiment: flow cytometry on monocytes, Sample 2, antibody at 3 µg/mL
[5] = target: TLR2 on human monocytes (human) (UniProt O60603); experiment: flow cytometry on monocytes, Sample 3, antibody at 1 µg/mL
[6] = target: TLR2 on human monocytes (human) (UniProt O60603); experiment: flow cytometry on monocytes, Sample 3, antibody at 3 µg/mL
[7] = target: TLR2 on human monocytes (human) (UniProt O60603); experiment: flow cytometry on monocytes, Sample 1, instrument setting FL534
[8] = target: TLR2 on human monocytes (human) (UniProt O60603); experiment: flow cytometry on monocytes, Sample 1, instrument setting FL634
[9] = target: TLR2 on human monocytes (human) (UniProt O60603); experiment: flow cytometry on monocytes, Sample 2, instrument setting FL534
[10] = target: TLR2 on human monocytes (human) (UniProt O60603); experiment: flow cytometry on monocytes, Sample 2, instrument setting FL634
[11] = target: TLR2 on human monocytes (human) (UniProt O60603); experiment: flow cytometry on monocytes, Sample 3, instrument setting FL534
[12] = target: TLR2 on human monocytes (human) (UniProt O60603); experiment: flow cytometry on monocytes, Sample 3, instrument setting FL634
[13] = target: TLR2 on human monocytes (human) (UniProt O60603); experiment: flow cytometry on monocytes of a patient's blood sample, 3 µg/mL PE-labeled antibody
[14] = target: TLR2 on human monocytes (human) (UniProt O60603); experiment: flow cytometry on monocytes, MFI of anti-TLR2 antibody minus MFI of control antibody
[15] = target: TLR2 on human monocytes (human) (UniProt O60603); experiment: flow cytometry on monocytes of a patient's blood sample, 3 µg/mL PE-labeled control antibody

Chain of UniProt O60603 (O60603 21-784): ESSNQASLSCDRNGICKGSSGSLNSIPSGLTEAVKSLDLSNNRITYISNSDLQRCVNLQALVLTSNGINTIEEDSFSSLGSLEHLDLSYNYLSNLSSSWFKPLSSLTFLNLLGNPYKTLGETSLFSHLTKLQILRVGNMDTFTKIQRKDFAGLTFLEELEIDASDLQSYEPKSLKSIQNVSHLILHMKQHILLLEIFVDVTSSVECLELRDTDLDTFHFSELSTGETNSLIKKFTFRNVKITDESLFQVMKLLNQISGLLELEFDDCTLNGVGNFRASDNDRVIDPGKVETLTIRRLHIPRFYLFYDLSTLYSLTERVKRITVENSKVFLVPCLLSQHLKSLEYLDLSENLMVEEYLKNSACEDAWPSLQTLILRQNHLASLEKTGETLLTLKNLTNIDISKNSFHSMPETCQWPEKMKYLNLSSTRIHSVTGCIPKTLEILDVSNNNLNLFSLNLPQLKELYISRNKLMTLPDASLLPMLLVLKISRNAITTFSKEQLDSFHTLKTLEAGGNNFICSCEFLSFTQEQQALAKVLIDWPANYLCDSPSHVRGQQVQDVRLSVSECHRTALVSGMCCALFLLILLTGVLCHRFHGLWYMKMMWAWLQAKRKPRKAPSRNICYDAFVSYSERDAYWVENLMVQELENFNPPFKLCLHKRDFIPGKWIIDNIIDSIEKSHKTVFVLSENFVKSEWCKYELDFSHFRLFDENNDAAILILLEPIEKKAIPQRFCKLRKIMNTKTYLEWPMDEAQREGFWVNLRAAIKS

Delta MFI [1] [MFI]	Delta MFI [2] [MFI]	Delta MFI [3] [MFI]	Delta MFI [4] [MFI]	Delta MFI [5] [MFI]	Delta MFI [6] [MFI]	Delta MFI [7] [MFI]	Delta MFI [8] [MFI]	Delta MFI [9] [MFI]	Delta MFI [10] [MFI]	Delta MFI [11] [MFI]	Delta MFI [12] [MFI]	MFI [13] [MFI]	Delta MFI [14] [MFI]	MFI [15] [MFI]	Substance
53.7	77.5	54.1	88	40.4	68.7	77.5	286	88	340	68.7	273	104	92.6	–	PE-bound anti-TLR2 monoclonal antibody (clone name: T2.1, product of eBioscience)
–	–	–	–	–	–	–	–	–	–	–	–	–	–	11.7	PE-labeled control (mouse IgG2a) antibody
